Experimental data taken from paper doi:10.1101/2022.09.11.507491.

These substances were tested against HA-CXCR4-RLuc3 (UniProt P61073) (assay: FRET or BRET).
Chain of UniProt P61073 (P61073 whole entry): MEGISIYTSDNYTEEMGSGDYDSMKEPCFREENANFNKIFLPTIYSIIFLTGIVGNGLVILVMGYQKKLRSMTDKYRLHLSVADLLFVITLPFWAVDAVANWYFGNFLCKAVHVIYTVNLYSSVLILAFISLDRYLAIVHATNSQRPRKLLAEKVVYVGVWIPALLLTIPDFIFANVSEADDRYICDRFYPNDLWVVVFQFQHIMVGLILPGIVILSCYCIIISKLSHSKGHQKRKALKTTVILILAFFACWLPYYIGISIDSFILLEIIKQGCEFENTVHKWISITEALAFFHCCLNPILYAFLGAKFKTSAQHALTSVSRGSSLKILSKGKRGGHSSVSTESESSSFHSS

Substance | Kd of BRET acceptor saturation (x axis: acceptor gMFI)
mVenus-mini-Gαs/i(Y320F) | 13.4
mVenus-miniGαs/i WT | 7.1
mVenus-miniGαs/i(Y320E) | 16.7
